Reference: US11584938B2, “Plant EPSPS mutant containing L195P and S247G mutations and encoding gene and use thereof” (GEVOTO LLC, priority 2017, dated 2023)
Residue numbers refer to the chain shown, from its start.

B1: G3: soybean EPSPS mutant, SEQ ID NO: 8, mutations L212(195)P and P114(101)S (protein)
chain: MAAAEKPSTAPEIVLEPIKDISGTITLPGSKSLSNRILLLAALSEGTTVVDNLLYSEDIHYMLGALRTLGLRVEDDQTTKQAIVEGCGGLFPTIKESKDEINLFLGNAGTAMRSLTAAVVAAGGNASYVLDGVPRMRERPIGDLVAGLKQLGADVDCFLGTNCPPVRVNGKGGLPGGKVKLSGSVSSQYLTALLMAAPLALGDVEIEIVDKPISVPYVEMTLKLMERFGVSVEHSGDWDKFLVHGGQKYKSPGNAFVEGDASSASYFLAGAAVTGGTITVNGCGTSSLQGDVKFAEVLEKMGAKVTWSENSVTVTGPPQDSSGQKVLQGIDVNMNKMPDVAMTLAVVALFANGQTTIRDVASWRVKETERMIAICTELRKLGATVEEGPDYCVITPPEKLNVTAIDTYDDHRMAMAFSLAACGDVPVTIKDPGCTRKTFPDYFEVLERFTRH
B2: G5: soybean EPSPS mutant, SEQ ID NO: 12, mutations S265(247)G and P114(101)S (protein)
chain: B1 chain with P212L, S265G
B3: G4: soybean EPSPS mutant, SEQ ID NO: 10, mutation S265(247)G (protein)
chain: B1 chain with S114P, P212L, S265G

Tested on: transgenic rice plants
Assay: glyphosate resistance of the EPSPS mutant in transgenic rice plants sprayed with Roundup 41% ammonium glyphosate
Type: in vivo, rice (Nipponbare)
Source text: A method for detecting the glyphosate resistance of G1 (SEQ ID NO: 4) provided in Example 1, G3 (SEQ ID NO: 8) provided in Example 2, G4 (SEQ ID NO: 10) provided in Example 3, the soybean EPSPS mutant G5 (SEQ ID NO: 12) provided in Example 4, T1 (SEQ ID NO: 16) provided in Example 5, T3 (SEQ ID NO: 20) provided in Example 6, T4 (SEQ ID NO: 22) provided in Example 7, T5 (SEQ ID NO: 24) provided in Example 8, the wheat EPSPS mutant T6 (SEQ ID NO: 26) provided in Example 9, R1 (SEQ ID NO: 30) provided in Example 10, R3 (SEQ ID NO: 34) provided in Example 11, R4 (SEQ ID NO: 36) provided in Example 12, R5 (SEQ ID NO: 38) provided in Example 13, and the rice EPSPS mutant R6 (SEQ ID NO: 40) provided in Example 14 in the transgenic rice is as follows:
The plasmids (containing the EPSPS mutation gene) of the monoclonal resistant bacteria of pADV5-EPSPS in Examples 1-7 were extracted by a conventional method, followed by double enzyme digestion by Pac1 and BstEII, the small fragments were collected, and then the small fragments were ligated by using T4 DNA ligase, to the pGVP1 vectors that had undergone the same double enzyme digestion, to obtain a pGVP1-EPSPS vector having a structure as shown in FIG. 23.
EHA105 (Agrobacterium tumefaciens) competent cells were transformed by the pGVP1-EPSPS vector, and single colonies were picked up to perform bacterial colony PCR detection to identify positive strains; then the positive strains were inoculated into 1 mL of YEP culture medium containing 50 μg·mL^−1 kanamycin and 50 μg·mL^−1 rifampin to propagate, and then preserved at −80° C., or used for subsequent experiment.
400 μl of bacterium containing the target gene vector preserved at −80° C. was added to a culture dish of solid culture media containing YEP+50 μg/mL rifampin+50 μg/mL kanamycin, and cultured in the dark at 28° C. for 24 hours, then this bacterium was added to an infection culture medium, and this bacterial solution was adjusted to OD=0.2 as an infection liquid.
Sterilization and pre-culturing: mature rice (Nipponbare) seeds were manually shelled, and full seeds without bacterial plaque were selected, and sterilized according to following steps: putting the seeds into a 50 ml sterile centrifuge tube, adding 70% alcohol for disinfection for 30 seconds, pouring out the alcohol, and cleaning the seeds once with sterile water; adding 10-20 ml of 2.6% sodium hypochlorite solution for soaking and sterilizing for 20 minutes, pouring out the sodium hypochlorite solution, and soaking and cleaning the seeds with sterile water for 6-7 times, 3 minutes each time.
Induction and subculturing: the seeds were put on sterile filter paper for drying, and mature embryos were put in an induction culture medium with 12 embryos in each dish; the culture dishes were sealed with a sealing film after the operation was finished, the mature embryos were cultured in the dark at 30° C. for 21-28 days, calluses were transferred into a fresh culture medium, and continuously cultured for about 7-14 days, and spherical calluses with a size of 1-2 mm were taken as infection receptors.
the calluses were inoculated into a centrifuge tube or a culture cup, the prepared Agrobacterium tumefaciens suspension liquid was added for infection for 10 minutes, wherein the calluses were shaken several times; the bacterial solution was poured out, the calluses were taken out, and placed on sterile filter paper to suck out the surface bacterial solution (about 30 minutes); and the calluses were put on sterile filter paper in a culture dish, and cultured in the dark at 25° C. for 2-3 days.
Recovery culturing: the calluses having undergone co-culturing were inoculated in a recovery culture medium, and cultured in the dark at 30° C. for 5-7 days. First round of screening: the calluses were transferred to screening culture media 1 (S1) and cultured in the dark at 30° C. for 14 days. […]

[1] = 1× dosage 1060 g/hectare glyphosate sprayed, recorded on 10th day
[2] = 2× dosage 2120 g/hectare sprayed to plants surviving 1×, recorded 10 days later
[3] = 5× dosage 5300 g/hectare sprayed to plants surviving 2×, recorded 10 days later
[4] = 20× dosage 21200 g/hectare sprayed to plants surviving 5×, recorded 10 days later

| Molecule | %++&+++ (percentage of plant having medium and high glyphosate resistance to the total number of plants observed) [1] [%] | number of plants denoted by + (low glyphosate resistance) [1] | number of plants denoted by ++ (medium glyphosate resistance) [1] | number of plants denoted by +++ (high glyphosate resistance) [1] | number of plants denoted by − (no glyphosate resistance) [1] | glyphosate resistance / survival of the rice transformed by the EPSPS, in words (1× glyphosate dosage) | %++&+++ (percentage of plant having medium and high glyphosate resistance to the total number of plants observed) [2] [%] | number of plants denoted by + (low glyphosate resistance) [2] | number of plants denoted by ++ (medium glyphosate resistance) [2] | number of plants denoted by +++ (high glyphosate resistance) [2] | number of plants denoted by − (no glyphosate resistance) [2] | glyphosate resistance / survival of the rice transformed by the EPSPS, in words (2× glyphosate dosage) | &++&+++ (percentage of plant having medium and high glyphosate resistance to the total number of plants observed) [3] [%] | number of plants denoted by + (low glyphosate resistance) [3] | number of plants denoted by ++ (medium glyphosate resistance) [3] | number of plants denoted by +++ (high glyphosate resistance) [3] | number of plants denoted by − (no glyphosate resistance) [3] | glyphosate resistance / survival of the rice transformed by the EPSPS, in words (5× glyphosate dosage) | &++&+++ (percentage of plant having medium and high glyphosate resistance to the total number of plants observed) [4] [%] | number of plants denoted by + (low glyphosate resistance) [4] | further results |
| --- | --- | --- | --- | --- | --- | --- | --- | --- | --- | --- | --- | --- | --- | --- | --- | --- | --- | --- | --- | --- | --- |
| B1 | 57.9 | 25 | 37 | 7 | 7 | had certain resistance to glyphosate | 0.0 | 66 | 0 | 0 | 10 | some of the rice seedlings containing the soybean EPSPS mutants G3 and G5 still survived | 0.0 | 46 | 0 | 0 | 30 | some of the rice seedlings containing the soybean EPSPS mutants G3 and G5 still survived | 0.0 | 8 | number of plants denoted by ++ (medium glyphosate resistance) [4]: 0; number of plants denoted by +++ (high glyphosate resistance) [4]: 0; number of plants denoted by − (no glyphosate resistance) [4]: 68; glyphosate resistance / survival of the rice transformed by the EPSPS, in words (20× glyphosate dosage): some of the rice seedlings containing the soybean EPSPS mutants G3 and G5 still survived |
| B2 | 69.1 | 14 | 18 | 49 | 16 | had certain resistance to glyphosate | 34.0 | 43 | 23 | 10 | 21 | some of the rice seedlings containing the soybean EPSPS mutants G3 and G5 still survived | 7.2 | 53 | 6 | 1 | 37 | some of the rice seedlings containing the soybean EPSPS mutants G3 and G5 still survived | 0.0 | 24 | number of plants denoted by ++ (medium glyphosate resistance) [4]: 0; number of plants denoted by +++ (high glyphosate resistance) [4]: 0; number of plants denoted by − (no glyphosate resistance) [4]: 73; glyphosate resistance / survival of the rice transformed by the EPSPS, in words (20× glyphosate dosage): some of the rice seedlings containing the soybean EPSPS mutants G3 and G5 still survived |
| B3 | 26.5 | 23 | 9 | 4 | 13 | obviously superior to that of the rice seedlings transformed by G0 | 2.0 | 25 | 01 | 0 | 25 | some of the transgenic rice seedlings transformed by G4 still survived | 0.0 | 7 | 0 | 0 | 44 | some of the transgenic rice seedlings transformed by G4 still survived | 0.0 | 0 | number of plants denoted by ++ (medium glyphosate resistance) [4]: 0; number of plants denoted by +++ (high glyphosate resistance) [4]: 0; number of plants denoted by − (no glyphosate resistance) [4]: 51 |
